Measurements taken from patent US6803203B1, “DNA-PK assay” (Brookhaven Science Associates, priority 1993, dated 2004).
“Also recorded” adds a separate entry of the source. No end group written: not given here.

How the values were obtained:
[1] = system: DNA-PK; assay: DNA-PK activity in extracts of mouse cell lines; assay type: biochemical; conditions: peptide 0.2 mM; for Specific Activity + DNA: + calf thymus DNA 10 μg/ml; for Specific Activity − DNA: no added DNA
Method: (§1) Extracts of additional primate and rodent cells were tested for the presence of DNA-PK activity in accordance with the method of the present invention. The DNA-PK activity was determined using the methods described in Examples 1, 4 and 5 for seven human cell lines, two African green monkey kidney lines, and six rodent cell lines.
(§2) Extracts were prepared essentially as described in Example 10. Cells were lysed by freezing and thawing in hypotonic buffer; soluble (S10) “cytoplasmic” and insoluble in (P10) “nuclear” fractions were made by centrifuging lysates at 10,000×g for 10 min. The insoluble fraction was extracted with buffer containing 0.5 M KCl, which releases any DNA-PK that is bound to DNA. After centrifugation of the salt-washed pellet fraction, which removed the remaining insoluble material, the salt extract (P10S) was diluted and assayed as previously described.
(§3) Protein concentrations, determined using the Bio-Rad dye binding assay, were between 0.3 and 6 mg/ml. Extracts were incubated at 30° C. for 10 min with each peptide at 0.2 mM in the absence of added DNA (−DNA) or with 10 μg/ml calf thymus DNA (+DNA). After incubation the reaction mixtures were acidified with an equal volume of 30% acetic acid and spotted on to Whatman P-81 phosphocellulose paper (Whatman, Inc., Clifton, N.J.). The filters then were washed extensively in 15% acetic acid before the adsorbed radioactivity was quantitated as described in Example 5.
(§4) The amount of phosphate incorporated was calculated from the specific activity of the ATP. The rate of phosphate incorporation into the Ser-Gln-Glu peptide (Table 1) (SEQ ID NO: 11) in the presence of calf thymus DNA was approximately linear throughout the 10 minute reaction incubation period. Parallel assays were performed without added peptide, and these background values were subtracted to produce the activities that are shown in Table 3. Background values varied but, in all cases, were less than 0.2 nmol/min/mg (a few percent of the activity present in human cells). The specific activities were calculated from the total activity in the two fractions divided by the total protein in the two fractions. The percent of total DNA-PK activity in the S10 and P10S fractions was determined with peptide (SEQ ID NO: 11) in the presence of added calf thymus DNA. Extracts without substantial DNA-PK activity were examined for their ability to inhibit purified DNA-PK. Inhibitory activity was not detected.

[2] = system: DNA-PK; assay: DNA-PK activity in extracts of hamster cell lines; assay type: biochemical, Chinese hamster; conditions: peptide 0.2 mM; for Specific Activity + DNA: + calf thymus DNA 10 μg/ml; for Specific Activity − DNA: no added DNA
Method: as §1, §2, §3, §4

[3] = target: T1, DNA-PK (Homo sapiens, UniProt P78527); assay: Phosphorylation of synthetic peptides in crude cell extracts (HeLa, T98G); assay type: biochemical; conditions: for PO4 incorporated + DNA: + calf thymus DNA 10 μg/ml; for PO4 incorporated + DNA / PO4 incorporated − DNA: peptide 200 μM, 10 min 30° C.; for PO4 incorporated − DNA: without DNA
T1 construct: DNA-PK was purified from HeLa cells; endogenous in cells; host or cells: HeLa S3 cells; the endogenous enzyme was purified in house by chromatography
Method: To examine cells for DNA-PK content, extracts from HeLa, T98G human glioblastoma, and mouse L 929 cells were prepared by freeze-thaw lysis of cells harvested from five nearly confluent 9-cm-diameter plates as described in Example 1 and by Lees-Miller, et al. J. Biol. Chem., 264:2431-2437 (1989). T98G (ATCC CRL 1690) is a human glioblastoma cell line; L-929 (ATCC CCL 1) was derived from connective tissue of the NCTC 2071 mouse. Based on earlier work with natural protein substrates, it was expected that extracts of HeLa and T98G cells would contain a significant amount of DNA-PK activity while the extracts of mouse L 929 would contain little, if any, DNA-PK activity. Lysates in low-salt buffer were centrifuged at 10,000×g, to give a supernatant fraction (designated S10) and pellets (designated P10). The pellets were washed by resuspension in a high salt buffer (0.5 M KCl, 25 mM N-2-hydroxyethylpiperazine-N′-2-ethanesulfonic acid (HEPES; pH 7.5), 10 mM MgCl2, 1 mM dithiothreitol) and were sonicated. The sonicated suspension was centrifuged at 10,000×g for 10 min to give a second supernatant fraction (designated P10S), which was diluted with buffer lacking KCl to give a volume equal to that of the original supernatant (S10). Protein concentrations, determined using the Bio-Rad dye-binding assay, were as follows: HeLa S10, 3 mg/ml; HeLa P10S, 1 mg/ml; T98G S10, 3.5 mg/ml;,T98G P10S, 1 mg/ml; L-929 S10, 1 mg/ml; and L-929 P10S, 0.3 mg/ml. These extracts were assayed for the ability to phosphorylate (SEQ ID NOS: 11 and 20) with and without added calf thymus DNA.

[4] = target: T1, DNA-PK; assay: Phosphorylation of synthetic peptides by purified DNA-PK (phosphocellulose paper binding method); assay type: biochemical
Method: Phenylmethylsulfonyl fluoride was added to the S10 (10,000×g) supernatant as a powder to 0.5 mM. DNA-PK activity was found in the 100,000×g (ribosomal) pellet. DNA-PK preparations typically were made from 200 ml of S10 supernatant that had been derived from approximately 10^10 cells. All steps were performed at 4° C. unless indicated otherwise.
Phosphorylation reactions were performed in a 20- or 40-μl final volume as previously described by Chen, et al., J. Virol., 10:5131-5140 (1991) and Lees-Miller, et al., Mol. Cell. […] In particular, in addition to synthetic peptide substrates or protein substrates, the assays contained 50 mM HEPES (pH 7.5), 100 mM KCl, 10 mM MgCl2, 2 mM EGTA, 0.1 mM EDTA and 0.125 mM ATP containing [^32P]ATP at 0.2 mCi/ml. […] Assays were started by adding 1 μl of kinase sample. Incubations were at 30° C. for 7 min.
For determinations of kinetic constants, the ATP concentration was 0.5 mM. When present, hsp90 was included at 0.5 mg/ml. Assay mixtures were preincubated at 30° C. for 2 min before addition of 0.1 to 0.5 μg (protein) of the DNA-PK preparation.
In particular, kinase reactions were stopped by adding an equal volume of 30% acetic acid, and portions of the acidified reaction were spotted on 2- by 2-cm squares of P-81 paper (Whatman, Inc., Clifton, N.J.). […] The P-81 squares were then transferred to scintillation vials containing 3.5 ml of water, and bound radioactivity was determined from the Cerenkov radiation. Enzyme activity was calculated from triplicate determinations, using the specific activity of the ATP and the protein concentration, which was determined by the Bio-Rad dye-binding assay (Bio-Rad (Bradford) Protein Assay Kit 1, Cat. No. 500-001, Bio-Rad Laboratories, Hercules, Calif.), using bovine serum albumin as the standard. […] The kinetic constants, Km and Vmax for each peptide sequence were calculated from plots of 1/[S] versus 1/V, the values reported are averages of at least two independent determinations.

[5] = target: T1, DNA-PK; assay: DNA-PK activity in extracts of human cell lines; assay type: biochemical; conditions: for Specific Activity + DNA: + calf thymus DNA 10 μg/ml; for Specific Activity + DNA / Specific Activity − DNA: peptide 0.2 mM; for Specific Activity − DNA: no added DNA
Method: as §1, §2, §3, §4

## EPPLSEQAFADLWKK [SEQ ID NO: 20]
[1]; Mouse L-929, P10S
  Specific Activity + DNA: 0.0 nmol PO4/min/mg protein
  Specific Activity − DNA: 0.0 nmol PO4/min/mg protein
[1]; Mouse L-929, S10
  Specific Activity + DNA: 0.0 nmol PO4/min/mg protein
  Specific Activity − DNA: 0.0 nmol PO4/min/mg protein
[1]; Mouse SV-Balb/c, P10S
  Specific Activity + DNA: 0.04 nmol PO4/min/mg protein
  Specific Activity − DNA: 0.0 nmol PO4/min/mg protein
[1]; Mouse SV-Balb/c, S10
  Specific Activity + DNA: 0.06 nmol PO4/min/mg protein
  Specific Activity − DNA: 0.0 nmol PO4/min/mg protein
[2]; Hamster CHO, P10S
  Specific Activity + DNA: 0.06 nmol PO4/min/mg protein
  Specific Activity − DNA: 0.0 nmol PO4/min/mg protein
[2]; Hamster CHO, S10
  Specific Activity + DNA: 0.01 nmol PO4/min/mg protein
  Specific Activity − DNA: 0.0 nmol PO4/min/mg protein
[2]; Hamster V79, P10S
  Specific Activity + DNA: 0.05 nmol PO4/min/mg protein
  Specific Activity − DNA: 0.05 nmol PO4/min/mg protein
[2]; Hamster V79, S10
  Specific Activity + DNA: 0.0 nmol PO4/min/mg protein
  Specific Activity − DNA: 0.0 nmol PO4/min/mg protein
[3]; HeLa, P10S
  PO4 incorporated + DNA: 0.0 nmol/min/ml of extract
  PO4 incorporated − DNA: 0.0 nmol/min/ml of extract
[3]; HeLa, S10
  PO4 incorporated + DNA: 0.3 nmol/min/ml of extract
  PO4 incorporated − DNA: 0.0 nmol/min/ml of extract
[3]; T98G, P10S
  PO4 incorporated + DNA: 0.0 nmol/min/ml of extract
  PO4 incorporated − DNA: 0.0 nmol/min/ml of extract
[3]; T98G, S10
  PO4 incorporated + DNA: 0.04 nmol/min/ml of extract
  PO4 incorporated − DNA: 0.02 nmol/min/ml of extract
[3]; all extracts of Table 2 (HeLa, T98G, L 929)
  phosphorylation by crude cell extracts (in words): poorly phosphorylated, if at all
[4]
  substrate activity for DNA-PK (in words): negligible substrate activity; also recorded: not phosphorylated by DNA-PK
[4]; each peptide at 200 μM, calf thymus DNA 10 μg/ml, 30° C.
  PO4 incorp.: 0 pmol/min/μg of DNA-PK
[5]; Human 293-S, P10S
  Specific Activity + DNA: 0.04 nmol PO4/min/mg protein
  Specific Activity − DNA: 0.0 nmol PO4/min/mg protein
[5]; Human 293-S, S10
  Specific Activity + DNA: 0.01 nmol PO4/min/mg protein
  Specific Activity − DNA: 0.0 nmol PO4/min/mg protein
[5]; Human A549, P10S
  Specific Activity + DNA: 0.01 nmol PO4/min/mg protein
  Specific Activity − DNA: 0.06 nmol PO4/min/mg protein
[5]; Human A549, S10
  Specific Activity + DNA: 0.0 nmol PO4/min/mg protein
  Specific Activity − DNA: 0.02 nmol PO4/min/mg protein
[5]; Human HPB-ALL, P10S
  Specific Activity + DNA: 0.05 nmol PO4/min/mg protein
  Specific Activity − DNA: 0.04 nmol PO4/min/mg protein
[5]; Human HPB-ALL, S10
  Specific Activity + DNA: 0.0 nmol PO4/min/mg protein
  Specific Activity − DNA: 0.04 nmol PO4/min/mg protein
[5]; Human HeLa-JW, P10S
  Specific Activity + DNA: 0.1 nmol PO4/min/mg protein
  Specific Activity − DNA: 0.0 nmol PO4/min/mg protein
[5]; Human HeLa-JW, S10
  Specific Activity + DNA: 0.1 nmol PO4/min/mg protein
  Specific Activity − DNA: 0.0 nmol PO4/min/mg protein
[5]; Human MRC 5, P10S
  Specific Activity + DNA: 0.04 nmol PO4/min/mg protein
  Specific Activity − DNA: 0.02 nmol PO4/min/mg protein
[5]; Human MRC 5, S10
  Specific Activity + DNA: 0.30 nmol PO4/min/mg protein
  Specific Activity − DNA: 0.11 nmol PO4/min/mg protein
[5]; Human Raji, P10S
  Specific Activity + DNA: 0.0 nmol PO4/min/mg protein
  Specific Activity − DNA: 0.0 nmol PO4/min/mg protein
[5]; Human Raji, S10
  Specific Activity + DNA: 0.0 nmol PO4/min/mg protein
  Specific Activity − DNA: 0.08 nmol PO4/min/mg protein
[5]; Human T98G, P10S
  Specific Activity + DNA: 0.0 nmol PO4/min/mg protein
  Specific Activity − DNA: 0.0 nmol PO4/min/mg protein
[5]; Human T98G, S10
  Specific Activity + DNA: 0.01 nmol PO4/min/mg protein
  Specific Activity − DNA: 0.01 nmol PO4/min/mg protein
[5]; all extracts of Example 11, with or without added DNA
  phosphorylation of the peptide by cell extracts (in words): None of the extracts phosphorylated the Ser-Glu-Gln peptide (SEQ ID NO: 20) at a significant rate
